± gives the uncertainty stated by the source.
B1: Tripartite motif-containing protein 44, residues 174 to 218; numbered along this chain, Q96DX7 (parent)
chain: VAKRKCPDHGLDLSTYCQEDRQLICVLCPVIGAHQGHQLSTLDEA

Variants of: B1
Test: abundance fitness (aPCA) (normalised: wild type 0, dead -1); higher = more abundant; growth selection in yeast, the domain comes from the species named
Conditions: Homo sapiens

| Variant | abundance fitness |
| --- | --- |
| VAKRKCPDHGLDLSTYCQEDRQLICVLCPVIGAHQGHQGSTLDEA | -0.041 ± 0.025 |
| VAKRKCPDHGLDLSTYCQEDRQLICVLCPVIGAHQGHQHSTLDEA | 0.011 ± 0.05 |
| VAKRKCPDHGLDLSTYCQEDRQLICVLCPVIGAHQGHQISTLDEA | -0.024 ± 0.054 |
| VAKRKCPDHGLDLSTYCQEDRQLICVLCPVIGAHQGHQKSTLDEA | -0.06 ± 0.034 |
| VAKRKCPDHGLDLSTYCQEDRQLICVLCPVIGAHQGHQMSTLDEA | 0.028 ± 0.03 |
| VAKRKCPDHGLDLSTYCQEDRQLICVLCPVIGAHQGHQNSTLDEA | -0.043 ± 0.056 |
| VAKRKCPDHGLDLSTYCQEDRQLICVLCPVIGAHQGHQPSTLDEA | -0.032 ± 0.034 |
| VAKRKCPDHGLDLSTYCQEDRQLICVLCPVIGAHQGHQQSTLDEA | 0.033 ± 0.032 |
| VAKRKCPDHGLDLSTYCQEDRQLICVLCPVIGAHQGHQRSTLDEA | -0.011 ± 0.027 |
| VAKRKCPDHGLDLSTYCQEDRQLICVLCPVIGAHQGHQSSTLDEA | -0.021 ± 0.031 |
| VAKRKCPDHGLDLSTYCQEDRQLICVLCPVIGAHQGHQTSTLDEA | 0.019 ± 0.033 |
| VAKRKCPDHGLDLSTYCQEDRQLICVLCPVIGAHQGHQVSTLDEA | -0.019 ± 0.027 |
| VAKRKCPDHGLDLSTYCQEDRQLICVLCPVIGAHQGHQWSTLDEA | -0.035 ± 0.028 |
| VAKRKCPDHGLDLSTYCQEDRQLICVLCPVIGAHQGHQYSTLDEA | -0.129 ± 0.05 |
| VAKRKCPDHGLDLSTYCQEDRQLICVLCPVIGAHQGHQLATLDEA | -0.008 ± 0.027 |
| VAKRKCPDHGLDLSTYCQEDRQLICVLCPVIGAHQGHQLCTLDEA | -0.027 ± 0.032 |
| VAKRKCPDHGLDLSTYCQEDRQLICVLCPVIGAHQGHQLDTLDEA | -0.032 ± 0.039 |
| VAKRKCPDHGLDLSTYCQEDRQLICVLCPVIGAHQGHQLETLDEA | -0.012 ± 0.029 |
| VAKRKCPDHGLDLSTYCQEDRQLICVLCPVIGAHQGHQLFTLDEA | -0.108 ± 0.041 |

| Variant | abundance fitness |
| --- | --- |
| VAKRKCPDHGLDLSTYCQEDRQLICVLCPVIGAHQGHQLGTLDEA | 0.015 ± 0.025 |
| VAKRKCPDHGLDLSTYCQEDRQLICVLCPVIGAHQGHQLHTLDEA | 0.022 ± 0.038 |
| VAKRKCPDHGLDLSTYCQEDRQLICVLCPVIGAHQGHQLITLDEA | -0.079 ± 0.058 |
| VAKRKCPDHGLDLSTYCQEDRQLICVLCPVIGAHQGHQLKTLDEA | -0.041 ± 0.032 |
| VAKRKCPDHGLDLSTYCQEDRQLICVLCPVIGAHQGHQLLTLDEA | -0.084 ± 0.029 |
| VAKRKCPDHGLDLSTYCQEDRQLICVLCPVIGAHQGHQLMTLDEA | -0.103 ± 0.032 |
| VAKRKCPDHGLDLSTYCQEDRQLICVLCPVIGAHQGHQLNTLDEA | -0.118 ± 0.048 |
| VAKRKCPDHGLDLSTYCQEDRQLICVLCPVIGAHQGHQLPTLDEA | -0.044 ± 0.031 |
| VAKRKCPDHGLDLSTYCQEDRQLICVLCPVIGAHQGHQLQTLDEA | 0.012 ± 0.038 |
| VAKRKCPDHGLDLSTYCQEDRQLICVLCPVIGAHQGHQLRTLDEA | -0.033 ± 0.026 |
| VAKRKCPDHGLDLSTYCQEDRQLICVLCPVIGAHQGHQLTTLDEA | -0.066 ± 0.029 |
| VAKRKCPDHGLDLSTYCQEDRQLICVLCPVIGAHQGHQLVTLDEA | -0.083 ± 0.027 |
| VAKRKCPDHGLDLSTYCQEDRQLICVLCPVIGAHQGHQLWTLDEA | -0.177 ± 0.027 |
| VAKRKCPDHGLDLSTYCQEDRQLICVLCPVIGAHQGHQLSALDEA | 0.024 ± 0.027 |
| VAKRKCPDHGLDLSTYCQEDRQLICVLCPVIGAHQGHQLSCLDEA | -0.029 ± 0.032 |
| VAKRKCPDHGLDLSTYCQEDRQLICVLCPVIGAHQGHQLSDLDEA | 0.016 ± 0.034 |
| VAKRKCPDHGLDLSTYCQEDRQLICVLCPVIGAHQGHQLSELDEA | 0.02 ± 0.028 |
| VAKRKCPDHGLDLSTYCQEDRQLICVLCPVIGAHQGHQLSFLDEA | -0.254 ± 0.051 |
| VAKRKCPDHGLDLSTYCQEDRQLICVLCPVIGAHQGHQLSGLDEA | 0.009 ± 0.025 |

| Variant | abundance fitness |
| --- | --- |
| VAKRKCPDHGLDLSTYCQEDRQLICVLCPVIGAHQGHQLSHLDEA | -0.102 ± 0.049 |
| VAKRKCPDHGLDLSTYCQEDRQLICVLCPVIGAHQGHQLSILDEA | -0.11 ± 0.04 |
| VAKRKCPDHGLDLSTYCQEDRQLICVLCPVIGAHQGHQLSLLDEA | -0.087 ± 0.028 |
| VAKRKCPDHGLDLSTYCQEDRQLICVLCPVIGAHQGHQLSMLDEA | -0.065 ± 0.03 |
| VAKRKCPDHGLDLSTYCQEDRQLICVLCPVIGAHQGHQLSNLDEA | 0.009 ± 0.042 |
| VAKRKCPDHGLDLSTYCQEDRQLICVLCPVIGAHQGHQLSPLDEA | 0.003 ± 0.033 |
| VAKRKCPDHGLDLSTYCQEDRQLICVLCPVIGAHQGHQLSQLDEA | 0.011 ± 0.037 |
| VAKRKCPDHGLDLSTYCQEDRQLICVLCPVIGAHQGHQLSSLDEA | 0.032 ± 0.03 |
| VAKRKCPDHGLDLSTYCQEDRQLICVLCPVIGAHQGHQLSVLDEA | -0.038 ± 0.026 |
| VAKRKCPDHGLDLSTYCQEDRQLICVLCPVIGAHQGHQLSWLDEA | -0.131 ± 0.029 |
| VAKRKCPDHGLDLSTYCQEDRQLICVLCPVIGAHQGHQLSYLDEA | -0.098 ± 0.036 |
| VAKRKCPDHGLDLSTYCQEDRQLICVLCPVIGAHQGHQLSTADEA | 0.045 ± 0.027 |
| VAKRKCPDHGLDLSTYCQEDRQLICVLCPVIGAHQGHQLSTCDEA | 0.014 ± 0.036 |
| VAKRKCPDHGLDLSTYCQEDRQLICVLCPVIGAHQGHQLSTDDEA | 0.028 ± 0.049 |
| VAKRKCPDHGLDLSTYCQEDRQLICVLCPVIGAHQGHQLSTEDEA | 0.035 ± 0.03 |
| VAKRKCPDHGLDLSTYCQEDRQLICVLCPVIGAHQGHQLSTFDEA | -0.031 ± 0.053 |
| VAKRKCPDHGLDLSTYCQEDRQLICVLCPVIGAHQGHQLSTGDEA | 0.05 ± 0.025 |
| VAKRKCPDHGLDLSTYCQEDRQLICVLCPVIGAHQGHQLSTHDEA | 0.056 ± 0.049 |
| VAKRKCPDHGLDLSTYCQEDRQLICVLCPVIGAHQGHQLSTKDEA | 0.043 ± 0.035 |

From the Human Domainome abundance scans (Beltran et al. 2025)
